# From PMC8196545 (Cell reports, 2021)
# Positions count from the first letter of the chain named.
# B1: c5266 (antibody, V domains shown)
# VH: QVRLQESGPGLVKPSETLSLTCSVSGASVTAYSWSWVRLSAERGLEWIGRILPTIGSNRSNPSLHMRVGMSADTSKNLLSLRLTSVTAADTATYFCARDLVRDYDSWGGDYSTFHGIDVWGQGITVTVSL
# VL: NSLLTQPPSVSESPGKTVNISCTRTSGGITWDFVQWYQQRPGRAPAIVIYANDRRPSGVPDRFAGSIDSSSNSAALIISGLITEDEADYYCQSFHPRGHVVFGGGTKLTVL
# B2: c22681 (antibody, V domains shown)
# VH: QIRLVESGGALVKPGGSLRLSCTASGFPFGHYYLSWVRQGPGRGLEWVAHISARSTTIVYADSVRGRFTISRDNDKRSLYLEMNDLRVDDTAMYYCARDSFKWTWEYFDAWGQGTRVSVSS
# VL: QSVLTQPPSVSGAPGQTVAISCSGSTSNIGHNPVSWYRNVPGTAPRIIIFSDSQRPSGIPGRFSGSKSGTSASLVITDLQLEDEGDYYCAAWGGSLRGALFGGGTKVTVL
# B3: c10969 (antibody, V domains shown)
# VH: AGHLVESGGKLISPGGSLSLSCVASGFTFKNAHMTWVRQVPGKGLEWIALMKSHADGSHTDYSPSVRDRCAISRDDSTSSLFLHLYNLQLDDTGIYYCVHLSSPDEWGLGTAVTVSS
# VL: HIVLTQSPVTLSGSQGDTVALSCRANQSLRSHLAWYQHRPGQTPKVLIYEVSRRRPATPPRFSGSGSGTEFTLVIRGLEPEDSAVYYCQQGDFWPFSFGQGTNLEIT
# B4: c10895 (antibody, V domains shown)
# VH: QEQGIESVRAAVESGASLIISCPTSGFDFARYTMHWVRQAPGKGLEWVAVTSSQGEKKYYSEAVKGRFVITRNNFKRTLYLEMSSLKPEDAGVYYCARSQGYCGTYACYGYYYYMDVWVKGPTVIVSS
# VL: QSVLTQPPSVSAAPGEKVAISCSGNTTNIEKNYVAWYQHVPETAPKLLIFENHKRPFGIPDRFSGSKSATSATLGISDLQTADEADYYCQTWDTKLHIWVFGGGTKLTVL
# B5: c5358 (antibody, V domains shown)
# VH: RLQLRESGPALVRPSETLSLTCTVSGGPTSDFFWSWVRQAAGGRLEWIGRIYASDGSTKMNPALHTRIGLELNTLENIFNLRLLSVTAADTAVYFCVREEVHGYDSWNSDSGTYNGIDAWGLGTPVTVSS
# VL: SVVLTQPPSVSGSPGETVIISCTRSSGAIPSRHVQWYRQRPGGLPARVIFANSQRPHWVPDRYSASVDASSNTASLTISGLQPDDEAKYFCQSFDDTRHHHIVFGGGTEVIVV
# B6: c26986 (antibody, V domains shown)
# VH: QVHLVQSGAEVKKPGSSVKVSCKASGGSFNTNFITWVRQAPGQGLEWMGRIMPMFGTRNLAQRFQGRVTLSADTSSNSVYMELSSLTFGDTAVYFCAREAPAGGLDIWGQGTLVTVSS
# VL: QIVLTQSPGTLSLSPGERATLSCRASQSLSSNYLAWYQQKPGQAPRLLIYGASSRATGIPDRFSGSGSGTDFTLTISRLEPEDFAVYYCQQYSTLFSFGPGTRVDIK
# B7: c5616 (antibody, V domains shown)
# VH: LVRLAESGGGVVRPGESLTLSCATSGFSFSSYGMHWVRQIPGKGLEWVAVIWNDGSRRYYSDSVQGRFTIAKDTSNKTLSLHMRDLQVGDTAVYFCARAYGPQSEMDSWGLGTLVTVSS
# VL: SSELTQPPSVSVSPGQTAILTCVGDILPRKHAYWYRQRAGRAPTLIVFGDNNRPSGIPARFSGFTSGTVATLVITAAQVDDGGDYFCYSADNSGNHRGVFGGGTRLTIL
# B8: c5299 (antibody, V domains shown)
# VH: QVRLLESGPGLVKPSGTLSLTCHVSGASVTSFSWSWVRQSAQKGLQWLGRILPTNGSNKSNPSLHPRVGLAADTSTNQLSLRLTSVTAADSGIYFCARDFVRDYDSWASDYSTLHGIDVWGPGTSVTVSF
# VL: NSLLTQPPSVSESPGKTVTISCTRTSGDITWDFVQWYRHRPGTSPTLVIFANDRRASGVPDRFSGSIDSSSNTAALTISGLKTDDEADYYCQSFHPRYHVVFGGGTKLTVL
# B9: c5272 (antibody, V domains shown)
# VH: EVRLQESGPELVKPSGTLSLTCTIYGESIFPYFYSWIRQTAGGGLQWIGRLYSSTGSSKSNPSIHLRVALSVDRDRNQVGLRMTSMSLADTGVYYCVRDVMRGYDSFDGSSGIYGGVDIWGRGTTVTVSS
# VL: QFLLTQPHSVSESPGKTITISCTRSSGTFASKSVLWFSQRPGSRPTNVIFETNRRAAGVPDRFSGSVDSSSSSATLTISGLRTEDEGDYYCQSYDGGNHVVFGGGTKVTVL
# B10: c5229 (antibody, V domains shown)
# VH: QMQLQESGPRLVKPSETLTVTCSVSGGSMSHFHWSWIRQSAGKGLEWIGSVYGNSGSVRSNPSLHTRVAFSLGRGQISLNLKWATAADTAVYYCARELARDFDYNFGHGGSSFGIEVWGRGTLVTVSS
# VL: NFILTQPHSVSGSPGKTVIISCTRSSGNIGDNSVQWYQQRPGTPPRTVISEKNKRPSGVPDRFSASIDTSSNSASLTISGLTTEDEADYYCQSCDSGNRLIFGGGTTLTVL
# B11: c5373 (antibody, V domains shown)
# VH: QVRLQESAPRVVKPSESLSLTCTVSGGSIFPFFYSWIRQAPGGGLQWIGRLYSNTGSSKSNPSLHLRVALSVDRSRNQVGLKMTSMTAADTGVYYCVRDIMREFDDFNGAGGVYGGVDIWGRGTAVTVSS
# VL: QFVLTQPPSVSESPGKTISISCTRSSGTFARNSVHWYLQRPGSVPKTVIYDGNRRPSGIPGRFSASIDVSSGSASLTISGLTTEDEAEYYCQSFDGGNHVVFGGGTKVTVL
# B12: c10819 (antibody, V domains shown)
# VH: EMRLEESGGALVKPGGSLRLSCVASGFKLSEWSLMWVRQAPGKGLQWVSSISLNQDYISYAGSVRGRFDVFRDRTQTSLLLNMNKLKTEDTGIYFCARVHAWRYFDWVNRRSPVEKVLSIDLWGRGTLVIVSS
# VL: SGATQPPSVSVSKGETARITCSGVELSSQYVSWYRQRPGQSPVLVMFHNNSRASRIPERFSASDSGDTATLTIAGAQDVDEAEYYCQTWDSKNYVTFGGGTKLTVL
# B13: c31993 (antibody, V domains shown)
# VH: EVQLVQSGAEVKKPGESLKISCKCSGYTFSDHWIGWVRQRPEKGLEWMGIIFPDDSETRYSPSFEGQVTFSVDTASSTAYLLWNSLKPSDTATYYCARQESDEVRGARYDIWGQGTVVAVSS
# VL: QSVLTQPPSVSGTPGQRVTISCSGSTSNVENNYVFWYQQLPGKAPELLIDGSNQRPSGVPDRFSGSKSGISASLAISGLRSEDEAYYYCAAWDESFVYLFGGGTKLTVL
# B14: c24356 (antibody, V domains shown)
# VH: QVQVVQSGAEVKQPGASVSVSCKVLGYTLSELSMHWVRQSPAKGLEWMAGFDPDANKEIYAQEFQGRVTLTHHFDTDTYFLELTSLRSDDTAVYYCATGERLAGNFLDWLHNFDYWGQGTLVTVSA
# VL: EIVLTQSPATLSLSPGERATLSCRASQSIGNYLAWYQQRPGQAPRLLIHSTSNRATGIPVRFTGSGSGTDFTLTISSLEAEDFAVYYCQHRVNWPPGYTFGQGTKLDIK
# B15: c807 (antibody, V domains shown)
# VH: QVQLQESAPRLVTTSETLSLTCTVFGGQFYPFFYSWVRQSPGGKLQWIGRKYSSTGSMRTNPSLHTRVGMPLDHSKSQIGLTMSSMTAADTGIYYCVRDIMREFDSVDGSGGVYGGVDVWGRGTTVTVSS
# VL: NFMLTQPPSVSESPGKTVTISCTRNSGSIASNSVYWYRQRPGSPPTTLIHDNNRRPTGVPDRFSASIDTSSNSASLTISSLKTEDEADYYCQSYDNGNHVIFGGGTNLLVL
# B16: c26412 (antibody, V domains shown)
# VH: EVRLVQSGGGVVRPGGSLRLSCSASGFSFSRSAMSWVRQAPGKELQWVAAISGSGNSHHISDAFRGRVSISRNNENDSVFLQMSNLRLDDTGKYFCAKSEGGRSGWYYWATEYFQHWGQGAVVTVSS
# VL: SSELTQPPSVSVSPGQTARISCSGHTLPQRYATWYQQKPGRAPLLIIFGNNERPSGIPARFSVSASGKSAILTITGVQAEDEGDYICQSSDGSHTSLFFGGGTKLTVL
# B17: c24118 (antibody, V domains shown)
# VH: EVRLVESGGSLVQPGGSLRLSCSASGFSFSKSAMSWVRQAPGKELEWVAAISGSGNSHHISDAVRGRFSISRDNLGDSVFLQMYNLRVDDTAKYFCAKSEGGRSGWYYWATEYFQHWGQGAVVTVAS
# VL: B16 VL with T26A, Q36R, R41Q, L44I, S62F, S69T, F98V
# B18: c24103 (antibody, V domains shown)
# VH: B17 VH with V5A, E6Q, S10G, E46Q, H58Q, F68L, G76D, Q82H, Y84N, D89E
# VL: B16 VL with T26A, Q36R, R41Q, L44I, I47V, S69T, I71M, F98V
# B19: c5331 (antibody, V domains shown)
# VH: HVHLQESGPGLVKPSETLSVTCQVSGSPLSRYFWSWIRQPAGGGLEWIGRHYPSSGSNTASAALHTRITMSMDFRNNRLSLTLRSVTAADTAVYYCTRDVMRDFNDVNGSGGTFRGVEFWGRGTTVTVSS
# VL: SFILTQPHAVSESPGKTVTISCTRSSGSIDTAYVHWYQQRPGRPPTTLIYDANQRPSGVPDRFSASVDSSSSSASLTISGLEAEDEAIYYCQSSDSGHRVVFGGGTELTVL
# B20: c27003 (antibody, V domains shown)
# VH: QFQLVQSGAEVRSPGSSVTVSCKASGSTFHTYVLSWVRQAPGQGLEWMGGIIPIFATPKYAQKFQGRVTFTADEGTSTAYMDLRSLRPEDTAVYYCARSATGGTALVDYGDYEGDTFYHNHMDVWGAGTTVTVSS
# VL: QSVLTQPPSASATPGQRVTISCSGRTSNVGSYAVSWYQQLPGTAPKLVIYSDDRRPSGVPDRFSGSKSGTSASLAISGLQSEDEADFYCAAWDDSLKTPVFGGGTKLTVL
# B21: c5260 (antibody, V domains shown)
# VH: QVRLQESGPRLVKPSETLSLTCTVSGASVTSYSWSWIRYSAERGLEWIGRILPTIGSNRANPSLHFRVGMSADTSKNLLSLRLTSLTAADTAIYFCARDLVRDYDSWGGDYSTFHGIDVWGQGTTVIVSL
# VL: NSLLTQPPSVSESPGKTVNISCTRTSGAITWDFVQWYQKRPGSVPTVVIYANDRRPSGVPDRFSGSIDSSSNSAALTISRLKTEDEAEYYCQSFHPRSHVVFGGGTKLTVL
# Biological target: HIV-1 NL4-3 Env on infected cells (HIV-1 group M subtype B, NL4-3 (pNL4-3 …, strain))
row,Binder,binding result
1,B1,binds
2,B2,binds
3,B3,binds
4,B4,binds
5,B5,binds
6,B6,binds
7,B7,binds
8,B8,binds
9,B9,binds
10,B10,binds
11,B11,binds
12,B12,binds
13,B13,binds
14,B14,binds
15,B15,binds
16,B16,binds
17,B17,binds
18,B18,binds
19,B19,binds
20,B20,binds
21,B21,binds
